Measured values published in patent US20070134249A1 (GENITOPE, published 2007).

Legend:
Assay in all cases: ELISA
Parameters in all cases: key to grade: 0 = <0.5 OD, 1 = 0.5-1.0 OD, 4 = 1-4 OD
1067 = biological target: T1, 1067
T1 construct: H1-8 L2-23; also called PIN1067
Description: (§1) Before specificity screening, all of the clonal immunogen-positive hybridoma supernatants were re-screened on the immunogen, a non-family member Id protein, and KLH, if animals were immunized with Id protein that has been conjugated KLH. As described above, this screen identifies HC-specific clones but not mAbs against the light chain constant region. Clones identified positive to the immunogen and KLH were […]. Those found positive to the immunogen but not to the non-family member Id protein or KLH were tittered on the immunogen. In addition to normalizing for different binding affinities and concentrations, each hybridoma supernatant was titered on the fully human form of the Id protein used as the immunogen(s) for the V regions. The titer or dilution resulting in an ELISA absorbance of 2.5 to 3 OD after 30 min. incubation time was then used. Hybridoma specificity was determined by screening against available Id proteins expressing the same HV and KV or LV as well as different HV, KV and LV. The final ELISA results are expressed as follows: 0 (<0.5 OD), 1 (0.5-1.0 OD), or 4 (1-4 OD). Positive hybridoma supernatants are categorized according to specificity: anti-Id, anti-constant region (HC, KC or LC), or V region (HV, KV, LV family or family member).
(§2) In general, the fully human Id protein or proteins containing the immunogen V regions were coated onto 96-well ELISA plates at 2.5-5 ug/mL in carbonate buffer pH 9.6 and incubated at 4° C. for up to 14 days. On the day of the ELISA, plates were brought to RT and blocked with Tris-Tween-20, pH 7.6 for 15-60 min. at RT. Following a NaCl and Triton X-100 wash, diluted hybridoma cell culture supernatants were incubated overnight at 4° C. Hybridoma supernatant dilutions ranged from 1:2 to 1:25 and were prepared in PBS with 5% BSA. Plates were washed and incubated with HRP-conjugated goat anti-mouse IgG-specific detecting antibody. A chromogenic substrate (TMB) was used to measure the amount of mouse antibody bound to each well. The reaction was stopped at or before 30 minutes with IN H2SO4 and plates were read immediately. Absorbency readings at 450 nm ranging between 0-4 OD and using Molecular Devices plate reader and SOFTMAX PRO software.

102 = biological target: T2, 102
T2 construct: H1-18 L1-44; also called PIN102
Description: as §1, §2

534 = biological target: T3, 534
T3 construct: H3-11 L1-47; also called PIN534
Description: as §1, §2

762 = biological target: T4, 762
T4 construct: H3-7 L3-10; also called PIN762
Description: as §1, §2

116 = biological target: T5, 116
T5 construct: fully human Id protein; also called PIN116
Description: as §1, §2

747 = biological target: T6, 747
T6 construct: H3-23 L2-14; also called PIN747
Description: as §1, §2

796 = biological target: T7, 796
T7 construct: H3-23 L3-25; also called PIN796
Description: as §1, §2

604 = biological target: T8, 604
T8 construct: H4-34 L2-8; also called PIN604
Description: as §1, §2

625 = biological target: T9, 625
T9 construct: H4-61 L2-8; also called PIN625
Description: as §1, §2

552 = biological target: T10, 552
T10 construct: H1-18 L2-8; also called PIN552
Description: as §1, §2

733 = biological target: T11, 733
T11 construct: H3-48 L2-14; also called PIN733
Description: as §1, §2

645 = biological target: T12, 645
T12 construct: H3-74 L2-14; also called PIN645
Description: as §1, §2

857 = biological target: T13, 857
T13 construct: H5-51 L2-14; also called PIN857
Description: as §1, §2

1056 = biological target: T14, 1056
T14 construct: H3-48 L2-14; also called PIN1056
Description: as §1, §2

1167 = biological target: T15, 1167
T15 construct: H3-23 L2-14; also called PIN1167
Description: as §1, §2

196 = biological target: T16, 196
T16 construct: H4-31 L2-23; also called PIN196
Description: as §1, §2

1089 = biological target: T17, 1089
T17 construct: H3-73 L2-23; also called PIN1089
Description: as §1, §2

[1] = biological target: T18, PIN574 fully human Id protein (HV4-39 / LV1-40) (human)
T18 construct: Recombinant patient-derived idiotype immunoglobulin used as antigen, fully human form; also called Immunogen (for 20H5); not shown: human immunoglobulin heavy chain constant region, isotype G3 (HCG3); human immunoglobulin lambda light chain constant region (LC)
Description: as §1, §2

T18 sequence (VH, as listed by the source, chain 1 of 2): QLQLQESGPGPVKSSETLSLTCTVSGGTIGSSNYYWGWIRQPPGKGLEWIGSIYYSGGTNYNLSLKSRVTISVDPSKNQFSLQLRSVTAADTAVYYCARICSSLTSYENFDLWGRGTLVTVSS
T18 sequence (VL, as listed by the source, chain 2 of 2): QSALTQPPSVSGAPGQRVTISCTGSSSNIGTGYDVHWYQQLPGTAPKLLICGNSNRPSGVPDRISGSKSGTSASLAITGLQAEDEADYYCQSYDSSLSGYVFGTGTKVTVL
T5 sequence (VH, as listed by the source, chain 1 of 2): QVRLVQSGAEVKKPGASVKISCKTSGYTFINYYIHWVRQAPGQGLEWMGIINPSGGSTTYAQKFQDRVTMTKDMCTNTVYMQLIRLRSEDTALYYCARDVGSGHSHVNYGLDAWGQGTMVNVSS
T5 sequence (V domain, as listed by the source, chain 2 of 2): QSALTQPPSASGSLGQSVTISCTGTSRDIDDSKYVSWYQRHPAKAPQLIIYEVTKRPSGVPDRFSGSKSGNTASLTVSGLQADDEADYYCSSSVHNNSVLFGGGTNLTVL

B1: mAb clone 4H11 (antibody, V domains shown)
VH: EVKLVESGGGLVKPGGSLKLSCAASGFAFSNYDMSWVRQTPEKRLEWVATIRSDDSYTYYPDSVKGRFTISRDNARNTLYLQMSSLRSEDTAFYYCARREGNYAMDYWGQGTSVTVSS
VL: DIQMTQSPASLSVSVGETVTITCRASENIYSYLAWYQQKKGKSPQLLVYAATNLGDGVPTRFSGSGSGTQYSLKINSLQSEDFGSYYCQHFWGNPLTFGAGTKLELKR
notes: Mouse hybridoma mAb
- grade 1067: 4
- grade 102: 4
- grade 534: 4
- grade 762: 4
- binding result 116: no binding
- grade 747: 1
- grade 796: 4
- grade 604: 4
- grade 625: 4
- grade 552: 4
- grade 733: 4
- grade 645: 1
- grade 857: 4
- grade 1056: 4
- grade 1167: 4
- grade 196: 4
- grade 1089: 4
- grade [1]: 4
